Columns and labels:
[1] = target: Full-length Human OX40 (human) (UniProt P43489); test: flow cytometry (GUAVA Easycyte), antibody at 1:30 dilution, CHO clone OXF001a_6B1 expressing human OX40
[2] = target: Full-length Human OX40 (human) (UniProt P43489); test: flow cytometry (GUAVA Easycyte), antibody at 1:30 dilution, CHO clone OXF001a_9G10 expressing human OX40
[3] = target: Full-length Cyno OX40 (cynomolgus monkey); test: flow cytometry (GUAVA Easycyte), antibody at 1:30 dilution, CHO clone OXF004a_11H7 expressing cynomolgus OX40
Full-length Cyno OX40 (cynomolgus monkey), sequence (P43489 other isoform, or with tags, fused parts or gaps): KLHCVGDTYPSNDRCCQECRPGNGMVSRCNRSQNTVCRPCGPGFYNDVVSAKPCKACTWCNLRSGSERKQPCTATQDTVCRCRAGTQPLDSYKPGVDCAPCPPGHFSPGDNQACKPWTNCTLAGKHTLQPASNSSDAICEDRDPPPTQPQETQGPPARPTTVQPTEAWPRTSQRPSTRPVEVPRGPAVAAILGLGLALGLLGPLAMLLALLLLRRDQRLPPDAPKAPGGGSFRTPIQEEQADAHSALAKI

Full-length Human OX40 (human), sequence (P43489 29-277): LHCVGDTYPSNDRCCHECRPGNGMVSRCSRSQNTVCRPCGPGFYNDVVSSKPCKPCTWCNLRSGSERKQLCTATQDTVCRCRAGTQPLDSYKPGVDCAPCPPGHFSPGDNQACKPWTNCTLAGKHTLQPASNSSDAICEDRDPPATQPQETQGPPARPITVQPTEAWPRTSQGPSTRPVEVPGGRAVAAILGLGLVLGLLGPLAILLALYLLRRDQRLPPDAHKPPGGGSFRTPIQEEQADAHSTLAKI

- MFI [1]: 211
- MFI [2]: 230
- MFI [3]: 456
Substance: antibody to human OX40 (clone L106, BD Biosciences)
